Measurements as given in article PMC3511314, “Functional Characterization of Two M42 Aminopeptidases Erroneously Annotated as Cellulases” (PLoS ONE, 2012).

B1: CelM (Acetivibrio thermocellus) (protein)
chain: MEEEDMFDLLKKFTGIVGVSGNEEEIREAIIEEIKECVDEIKVDTLGNLIAVKKGKGKKIMVAAHMDEIGVMVTYIDDKGFLRFSAVGGVSRYDCIGQRVKFKNGVVGAVYYEEKLEDMKNLQLSKMYIDIGARSREEALKMVNIGDVACFVGDAVLQGDTVISKALDNRSGCAVVVKAIKELKKTDNEIYFVFTVQEEVGLRGAKTAAFSIKPDIAIAVDVTMTGDTPESHPMEVKCGGGPAIKVKDRSVICHPEVRKLLEESAKRNNIPYQLEILEAGGSDPGSIHLTAGGIPSGAISIPVRYVHSPVETASMSDINNAVKLLVEAIC
notes: recombinant dodecameric CelM bearing a C-terminal hexahistidine tag
B2: TmPep1050 (Thermotoga maritima MSB8) (protein)
chain: MKELIRKLTEAFGPSGREEEVRSIILEELEGHIDGHRIDGLGNLIVWKGSGEKKVILDAHIDEIGVVVTNVDDKGFLTIEPVGGVSPYMLLGKRIRFENGTIGVVGMEGETTEERQENVRKLSFDKLFIDIGANSREEAQKMCPIGSFGVYDSGFVEVSGKYVSKAMDDRIGCAVIVEVFKRIKPAVTLYGVFSVQEEVGLVGASVAGYGVPADEAIAIDVTDSADTPKAIKRHAMRLSGGPALKVKDRASISSKRILENLIEIAEKFDIKYQMEVLTFGGTNAMGYQRTREGIPSATVSIPTRYVHSPSEMIAPDDVEATVDLLIRYLGA
notes: recombinant TmPep1050 (TM1050 ORF)

Tests used:
Test in all cases: Michaelis-Menten kinetics of pNA hydrolysis (Km)
Conditions in all cases: Co2+
[1] = substrate: CSCC[C@H](N)C(=O)Nc1ccc([N+](=O)[O-])cc1; type: biochemical, Acetivibrio thermocellus
[2] = substrate: CC(C)C[C@H](N)C(=O)Nc1ccc([N+](=O)[O-])cc1; type: biochemical, Acetivibrio thermocellus
[3] = substrate: CC[C@H](C)[C@H](N)C(=O)Nc1ccc([N+](=O)[O-])cc1; type: biochemical, Acetivibrio thermocellus
[4] = substrate: CSCC[C@H](N)C(=O)Nc1ccc([N+](=O)[O-])cc1; type: biochemical, Thermotoga maritima
[5] = substrate: CC(C)C[C@H](N)C(=O)Nc1ccc([N+](=O)[O-])cc1; type: biochemical, Thermotoga maritima
[6] = substrate: CC[C@H](C)[C@H](N)C(=O)Nc1ccc([N+](=O)[O-])cc1; type: biochemical, Thermotoga maritima

Protein	Km [1]	kcat [1]	kcat/Km [1]	Km [2]	kcat [2]	kcat/Km [2]	Km [3]	kcat [3]	kcat/Km [3]	Km [4]	kcat [4]	kcat/Km [4]	Km [5]	kcat [5]	kcat/Km [5]	Km [6]	kcat [6]	kcat/Km [6]
B1	2900 ± 150 µM	0.072 ± 0.006 s⁻¹	24.8 M⁻¹ s⁻¹	3.5 ± 0.4 mM	0.4 ± 0.03 s⁻¹	114 M⁻¹ s⁻¹	2800 ± 200 µM	0.11 ± 0.01 s⁻¹	39.3 M⁻¹ s⁻¹	–	–	–	–	–	–	–	–	–
B2	–	–	–	–	–	–	–	–	–	650 ± 50 µM	0.009 ± 0.001 s⁻¹	13.8 M⁻¹ s⁻¹	4 ± 0.3 mM	0.253 ± 0.019 s⁻¹	63.2 M⁻¹ s⁻¹	1900 ± 200 µM	0.059 ± 0.008 s⁻¹	31.1 M⁻¹ s⁻¹
